According to article PMC10578488:

Biological target: recombinant PRMT5/MEP50 complex (human) (UniProt O14744)
Assay: SEC; PRMT5/MEP50 and purified U7 6S combined (molar ratio 4:8 or 4:2) in 20 mM Hepes pH 7.7, 100 mM NaCl, 2 mM DTT, 1 h on ice; Superose 6

recombinant PRMT5/MEP50 complex (human), sequence (O14744 whole entry, chain 1 of 2): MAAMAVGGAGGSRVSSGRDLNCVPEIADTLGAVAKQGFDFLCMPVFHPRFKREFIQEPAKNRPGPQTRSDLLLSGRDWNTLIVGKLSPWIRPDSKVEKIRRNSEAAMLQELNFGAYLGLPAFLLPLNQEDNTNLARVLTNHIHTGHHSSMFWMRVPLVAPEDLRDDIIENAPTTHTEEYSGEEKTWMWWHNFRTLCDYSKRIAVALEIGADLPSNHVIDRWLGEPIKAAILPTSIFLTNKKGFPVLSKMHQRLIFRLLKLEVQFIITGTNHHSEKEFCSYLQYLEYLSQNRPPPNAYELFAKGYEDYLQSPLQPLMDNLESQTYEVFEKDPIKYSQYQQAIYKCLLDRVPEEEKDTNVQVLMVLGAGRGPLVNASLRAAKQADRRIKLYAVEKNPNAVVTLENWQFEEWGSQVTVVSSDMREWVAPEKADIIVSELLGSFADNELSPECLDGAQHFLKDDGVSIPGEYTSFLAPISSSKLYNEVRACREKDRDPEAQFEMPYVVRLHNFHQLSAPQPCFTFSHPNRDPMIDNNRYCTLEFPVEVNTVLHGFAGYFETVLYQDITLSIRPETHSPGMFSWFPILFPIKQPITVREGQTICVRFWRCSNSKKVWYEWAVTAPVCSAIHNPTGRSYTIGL
recombinant PRMT5/MEP50 complex (human), sequence (Q9BQA1 whole entry, chain 2 of 2, further chain): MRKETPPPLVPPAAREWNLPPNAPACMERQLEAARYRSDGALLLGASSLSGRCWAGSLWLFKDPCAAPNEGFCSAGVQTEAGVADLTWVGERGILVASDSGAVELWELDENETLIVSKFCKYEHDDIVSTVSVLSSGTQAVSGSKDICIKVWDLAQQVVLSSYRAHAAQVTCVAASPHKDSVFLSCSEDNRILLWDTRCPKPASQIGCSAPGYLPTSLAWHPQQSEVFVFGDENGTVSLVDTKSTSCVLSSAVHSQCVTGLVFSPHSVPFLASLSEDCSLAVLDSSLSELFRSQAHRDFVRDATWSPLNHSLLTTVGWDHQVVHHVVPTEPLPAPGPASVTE

- stoichiometry N (U7 6S per PRMT5/MEP50 heterooctamer): 1
Substance: U7 6S complex (MBP-Lsm10/11ΔNL heterodimer, SmE/F/G heterotrimer and pICln) (from UniProt Q969L4 1-123; P83369 153-360; P62304 1-92; P62306 1-86; P62308 1-76; Q61189 1-236)
